{"source": "IntAct's records for PubMed 20534433", "parents": {"B1": {"name": "Protein RED1 (Saccharomyces cerevisiae), P14291 (parent)", "chain": "MEGLKKKIFGVCLKNDLAQTRNETKGIHYGLMTLETSKQLQEFLHLLVIKREVIQNFELLFHIINVAVKITDSNLPSDDIWHFILKLRFSSEINIDEDSKVLNYLLETGIAMENPVSWKCLAVISSILSSVPQSKKIITNLIETEHAKKIGQLFDNIQDLQQGNFLVEILSNCFKKSASNSKKVEKIPQLWQSRSKNKFFFENEFYPFSSKNGSLQTCQFLCNNFMSTLSFTGILRQVSYSGSETLKNLRIFKKKDDENSYFIQCIYNKIYLWLDEKAPLEFERKKIRITKNLKNKIQIKLRQPFHECVRTTADKTALLFNKTKGFQLEFEDEKLGETFFHNVNNIPKISEVQNFLVLDYIEEEPENEGEEEEQIGRADEQKEDEEEESLDELSTPMVYPIKSSIPHNHNEKVQLVTPDRSVSIRSDEWDLKSNTEDEEGNVLADLKISSTKETKRQTDYVHIDSEDQSPVVSAQMRKMRRESTKTLEILRQEFKDKDVQNKEDQSEQIQNPFVNTSSLVVGKSCLVNPKEKPNIDQTVVGITELKSNSSIKKRDINILDTIFGQPPSKKQKQFHKKEKKKQQKKLTNFKPIIDVPSQDKRNLRSNAPTKPKSIKVSKLRTDKKVTGEKSSPETAAEKVDDQTVRSNDEQAMSRATKEKCFPDVNEGKEITKDDAKVSLESKKNNETFVDSSVVEKHTPPDKDCNNCNITDILESTTVIDLQSPHGLSAPGQNTFTNKLQEQIYSSINHFSNELVRKISIINQELNKKILKELSEKYQKLFSELQDNFQNDTNEMLKFMGEIKDMMNLPEDQLVHAIRTRKFDNNKR", "partner": "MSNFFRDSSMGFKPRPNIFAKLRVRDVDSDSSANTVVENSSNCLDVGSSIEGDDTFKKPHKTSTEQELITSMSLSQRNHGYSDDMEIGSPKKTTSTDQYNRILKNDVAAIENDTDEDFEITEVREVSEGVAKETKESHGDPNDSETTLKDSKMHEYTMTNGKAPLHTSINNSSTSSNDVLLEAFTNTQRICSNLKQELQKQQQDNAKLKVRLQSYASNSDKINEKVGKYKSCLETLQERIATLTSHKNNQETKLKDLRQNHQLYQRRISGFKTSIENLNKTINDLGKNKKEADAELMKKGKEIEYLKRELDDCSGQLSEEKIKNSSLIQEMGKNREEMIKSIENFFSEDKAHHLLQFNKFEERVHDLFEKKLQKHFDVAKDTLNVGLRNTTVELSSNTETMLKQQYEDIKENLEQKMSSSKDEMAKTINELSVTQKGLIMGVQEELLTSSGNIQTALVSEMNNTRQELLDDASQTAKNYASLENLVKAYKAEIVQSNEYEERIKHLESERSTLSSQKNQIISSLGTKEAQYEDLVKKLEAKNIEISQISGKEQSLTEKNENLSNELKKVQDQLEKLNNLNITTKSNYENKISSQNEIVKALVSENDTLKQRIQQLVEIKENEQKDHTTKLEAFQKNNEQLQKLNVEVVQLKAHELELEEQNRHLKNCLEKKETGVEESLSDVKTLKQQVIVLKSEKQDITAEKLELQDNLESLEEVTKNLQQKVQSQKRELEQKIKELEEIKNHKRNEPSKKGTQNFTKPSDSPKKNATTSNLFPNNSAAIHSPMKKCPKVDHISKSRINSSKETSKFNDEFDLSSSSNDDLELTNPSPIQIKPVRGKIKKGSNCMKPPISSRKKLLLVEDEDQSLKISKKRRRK"}, "B2": {"name": "Protein RED1 (Saccharomyces cerevisiae), P14291 (parent)", "chain": "B1 chain", "partner": "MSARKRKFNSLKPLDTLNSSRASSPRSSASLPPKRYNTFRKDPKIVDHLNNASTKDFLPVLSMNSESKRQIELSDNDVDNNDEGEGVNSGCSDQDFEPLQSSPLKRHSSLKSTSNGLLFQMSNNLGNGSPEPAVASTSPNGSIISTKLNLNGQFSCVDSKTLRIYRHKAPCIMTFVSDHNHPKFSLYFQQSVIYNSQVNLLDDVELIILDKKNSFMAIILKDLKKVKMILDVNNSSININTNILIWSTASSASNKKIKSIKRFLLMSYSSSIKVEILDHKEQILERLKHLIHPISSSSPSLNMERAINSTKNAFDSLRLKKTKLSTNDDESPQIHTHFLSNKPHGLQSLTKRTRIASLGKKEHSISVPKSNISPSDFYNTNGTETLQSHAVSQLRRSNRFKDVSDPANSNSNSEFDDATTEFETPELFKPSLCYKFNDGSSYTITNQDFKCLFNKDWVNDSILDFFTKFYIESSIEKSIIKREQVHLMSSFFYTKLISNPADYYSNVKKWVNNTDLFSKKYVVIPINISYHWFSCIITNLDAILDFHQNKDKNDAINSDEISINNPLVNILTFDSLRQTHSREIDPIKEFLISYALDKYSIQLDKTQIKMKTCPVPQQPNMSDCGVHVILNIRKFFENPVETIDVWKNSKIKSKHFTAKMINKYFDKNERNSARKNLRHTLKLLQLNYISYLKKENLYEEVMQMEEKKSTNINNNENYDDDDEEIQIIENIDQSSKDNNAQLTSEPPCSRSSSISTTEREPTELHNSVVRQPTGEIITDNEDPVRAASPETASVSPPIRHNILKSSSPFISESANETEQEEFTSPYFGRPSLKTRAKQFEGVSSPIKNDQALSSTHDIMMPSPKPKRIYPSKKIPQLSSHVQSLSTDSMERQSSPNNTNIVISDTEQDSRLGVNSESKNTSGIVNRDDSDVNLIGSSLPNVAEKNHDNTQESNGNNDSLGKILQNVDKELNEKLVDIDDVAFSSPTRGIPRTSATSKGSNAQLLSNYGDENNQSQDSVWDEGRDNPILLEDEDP"}, "B3": {"name": "Protein RED1 (Saccharomyces cerevisiae), P14291 (parent)", "chain": "B1 chain", "partner": "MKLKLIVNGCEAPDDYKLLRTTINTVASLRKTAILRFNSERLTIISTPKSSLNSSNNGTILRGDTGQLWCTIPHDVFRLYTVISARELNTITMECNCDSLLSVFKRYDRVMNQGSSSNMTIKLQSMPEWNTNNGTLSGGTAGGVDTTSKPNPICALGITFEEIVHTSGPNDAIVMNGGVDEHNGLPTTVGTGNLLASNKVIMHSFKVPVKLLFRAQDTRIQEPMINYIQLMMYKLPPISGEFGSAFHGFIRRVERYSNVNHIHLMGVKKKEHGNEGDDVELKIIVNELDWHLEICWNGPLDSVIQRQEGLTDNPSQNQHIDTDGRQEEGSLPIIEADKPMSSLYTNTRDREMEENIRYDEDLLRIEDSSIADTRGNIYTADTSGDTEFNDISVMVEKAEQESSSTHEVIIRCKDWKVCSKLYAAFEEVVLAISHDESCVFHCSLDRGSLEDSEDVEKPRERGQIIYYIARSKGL"}, "B4": {"name": "Protein RED1 (Saccharomyces cerevisiae), P14291 (parent)", "chain": "B1 chain"}, "B5": {"name": "Protein RED1 (Saccharomyces cerevisiae), P14291 (parent)", "chain": "B1 chain", "partner": "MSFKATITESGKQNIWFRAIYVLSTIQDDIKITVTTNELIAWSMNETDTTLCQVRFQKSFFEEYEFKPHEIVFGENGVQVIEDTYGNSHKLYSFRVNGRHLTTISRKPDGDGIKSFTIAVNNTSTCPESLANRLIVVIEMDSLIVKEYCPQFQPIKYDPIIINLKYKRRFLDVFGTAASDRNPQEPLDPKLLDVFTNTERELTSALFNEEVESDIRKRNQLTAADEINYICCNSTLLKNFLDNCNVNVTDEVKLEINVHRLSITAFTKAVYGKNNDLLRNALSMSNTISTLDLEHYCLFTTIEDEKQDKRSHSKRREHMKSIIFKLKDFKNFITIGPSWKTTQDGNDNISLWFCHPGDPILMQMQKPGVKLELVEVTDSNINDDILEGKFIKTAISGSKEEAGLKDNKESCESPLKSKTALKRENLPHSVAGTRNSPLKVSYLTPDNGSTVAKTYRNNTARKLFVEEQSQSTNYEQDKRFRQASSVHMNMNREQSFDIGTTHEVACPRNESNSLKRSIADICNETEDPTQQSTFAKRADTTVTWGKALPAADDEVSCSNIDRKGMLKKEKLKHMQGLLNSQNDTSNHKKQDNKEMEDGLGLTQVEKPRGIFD"}}}
{"variants_of": "B1", "conditions": "with zip1_yeast ZIP1, P31111"}
{"variant": "K569R;K570R;K572R;K576R;K577R;K579R;K580R;K581R;K584R;K585R;K590R", "effect of a mutation on the interaction": "disrupting interaction strength"}
{"variants_of": "B2", "conditions": "with ulp2_yeast ULP2, P40537"}
{"variant": "K569R;K570R;K572R;K576R;K577R;K579R;K580R;K581R;K584R;K585R;K590R", "effect of a mutation on the interaction": "disrupting interaction strength"}
{"variants_of": "B3", "conditions": "with mec3_yeast MEC3, Q02574"}
{"variant": "Q537A;V540A", "effect of a mutation on the interaction": "disrupting interaction strength"}
{"variants_of": "B4", "conditions": "with smt3_yeast SMT3, Q12306"}
{"variant": "K569R;K570R;K572R;K576R;K577R", "effect of a mutation on the interaction": "disrupting interaction strength"}
{"variant": "K569R;K570R;K572R;K576R;K577R;K579R;K580R;K581R;K584R;K585R;K590R", "effect of a mutation on the interaction": "disrupting interaction strength"}
{"variants_of": "B5", "conditions": "with ddc1_yeast DDC1, Q08949"}
{"variant": "I743A", "effect of a mutation on the interaction": "disrupting interaction strength"}
